The record followed here is US20170281749A1.

Where only a bound is given, the exact number is not on record here.

Usually Kd stands for the free concentration of one partner at which half of the binding sites on the other are occupied at equilibrium, for simple one-to-one binding. A high value points to weaker binding.

Assay [1] addresses CH505TF gp120 GCN4 Trimer. Description: SPR.
A further assay concerns the target CH505TF gp140 Trimer. Description: SPR. A general note: Surface plasmon resonance follows binding to a sensor surface in real time, without labels.

As to 2G12 (-CHO), the Kd in assay [1] came to 169 nM; with CH505TF gp140 Trimer, 6.5 nM.

For 19b (V3), the Kd in assay [1] is 0.8 nM; with CH505TF gp140 Trimer, 1.2 nM.

As for 697 D (V2), the results for the Kd (in assay [1]; with CH505TF gp140 Trimer) were 554 nM and 170 nM, respectively.

A32 (C1): the Kd stood at 2.9 nM in assay [1] and 3 nM with CH505TF gp140 Trimer.

In the case of CH01 (V1-V2), the Kd in assay [1] was > 100000 nM.

Regarding CH58 (V2), the Kd in assay [1] was 104 nM; with CH505TF gp140 Trimer, 60.5 nM.

Consider CH103_UCA (CD4 bs), for which the values for the equilibrium dissociation constant (Kd) (in assay [1]; with CH505TF gp140 Trimer) were 14.6 nM and 36.1 nM, respectively.

As to CH106 (CD4 bs), the Kd in assay [1] worked out at 5.5 nM; in the assay with CH505TF gp140 Trimer, 5.81 nM.

Regarding F105 (CD4 bs), the values for the dissociation constant Kd (in assay [1]; in the assay with CH505TF gp140 Trimer) were 40.7 nM and 24.9 nM, respectively.

For PG9 (V1-V2), the values for the equilibrium dissociation constant (Kd) (in assay [1]; with CH505TF gp140 Trimer) were 159 nM and 69.2 nM, respectively.

Turning to PGT128 (-CHO), the Kd stood at 53 nM in assay [1] and 20.3 nM with CH505TF gp140 Trimer.

As for VRC01 (CD4 bs), the equilibrium dissociation constant (Kd) in assay [1] is 2.5 nM; with CH505TF gp140 Trimer it was 2.4 nM.
